Assay results as given in paper PMC2572730, “Structural Basis for the Recognition of Histone H4 by the Histone-Chaperone RbAp46” (Structure(London, England:1993), 2008).

Assays:
[1] = target: T1, RbAp46 (pRB-associated protein p46), human, recombinant (human, UniProt Q16576 1-411); assay: SPR; RbAp46 crosslinked to a CM5 chip, N-terminal histone H4 peptide as analyte; 10 mM HEPES (pH 7.4), 150 mM NaCl, 0.0005% (v/v) Surfactant P20; details: both partners purified
T1 construct: RbAp46 (RBBP7), human; also called RBBP7; RbAb46; source: recombinant, expressed and purified as described previously (Verreault et al., 1998; Berger et al., 2004)
T1 sequence (Q16576 1-411): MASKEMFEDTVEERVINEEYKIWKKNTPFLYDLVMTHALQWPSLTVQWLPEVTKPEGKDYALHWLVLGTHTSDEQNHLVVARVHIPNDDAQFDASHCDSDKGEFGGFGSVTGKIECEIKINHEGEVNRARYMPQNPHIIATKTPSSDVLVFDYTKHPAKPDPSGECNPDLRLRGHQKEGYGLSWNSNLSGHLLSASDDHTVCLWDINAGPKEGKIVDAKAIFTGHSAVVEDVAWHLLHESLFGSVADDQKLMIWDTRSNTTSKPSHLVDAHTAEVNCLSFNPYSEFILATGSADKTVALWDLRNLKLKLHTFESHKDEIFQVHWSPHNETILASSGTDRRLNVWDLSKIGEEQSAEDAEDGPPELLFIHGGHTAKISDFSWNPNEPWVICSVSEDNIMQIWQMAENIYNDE

[2] = target: T1, RbAp46 (pRB-associated protein p46), …; assay: other fluorescence titration; intrinsic tryptophan fluorescence of 45 nM RbAp46, increasing H3/H4 or H4 peptide (16-41); 50 mM Tris-HCl (pH 7.5), 200 mM NaCl, 5 mM DTT, 25°C; excitation 295 nm, emission 435 nm; single binding-site model; KD for H3/H4 called apparent; details: both partners purified

B1: synthetic histone H4 peptide (residues 16-41) (peptide)
peptide: not shown
notes: histone H4 residues 16-41; also called N-terminal histone H4 peptide; H4(16-41); source: synthetic peptide
[1]
  Kd: ~1000 nM
[2]
  Kd: 1100 nM
